Data from publication PMC10072977 (Biochemical and Biophysical Research Communications, 2023).

Target: biotinylated SARS-CoV-2 WT RBD (Kactus Biosystems, CoV-VM4BDB) (SARS-CoV-2, UniProt P0DTC2, biotin)
Assay: ELISA

B1: rabbit monoclonal antibody (RmAb) 9H1 (antibody, V domains shown)
VH: QSVEESGGRLVTPGTPLTLTCTVSGFSLSRYAMSWVRQAPGKGLEWIGIIVDSGHTAYASWAKGRFTISRTSTTVDLKMTSLTTEDTATYFCARETGGGAFYVFEFWGPGTVVTVSS
VL: QVLTQTPSSVSAAVGGTVTINCQASEDIYDNLVWYQQKPGQPPKLLIYDASTLAFGVSSRFRGSGSGTHFTLTMRDVQCDDAATYYCQGEFSCSSGDCTAFGGGTEVVVK
- binding result: binds
